Data on 20 sequences can be found in the DeepSol protein solubility set.

This series is described as follows: soluble on expression in E. coli; label from the status in PepcDB or PDB records.
Turning to “MLLQLAEDRRRLKGVQSTVKKAEIKVELLPKYAAWAEGVLAAGGAQQDDVLMYVMLWRIDAGDYAGALEIGRHALRHGWVMPLGNRNVQTVLAEEMADAAQSAMLATTGFDVDLLLQTLELTDGLDMPDQSRARLHKAIGAVLSESNPASALNHLNHALQLDPRCGVKKDKQQLERRLRNDSR”, the “soluble on expression in E. coli” value is “not soluble”. As for “MYIPKHFESMELSRYKLSKKPPLGTLFSSKASRQGFFGWRTSSNKDDPDFGMCASHIPFVFVEFDNGEHKLIAHLARKNKHVEMLERVQKCLVVFQSVDSYISPAWFPMKKKTHKFVPTWDFAAVHVYGTPRIIRDDKDWLINMLSTLTDQEEEKRPEGENVRSKVERF”, the “soluble on expression in E. coli” value is given as “soluble”. In the case of “MGSDKIHHHHHHMGSLNMPPLDFDAQKTPHIADLRSPQCRNCDIVREIAFCADLSPDEVKRLATVRCHAALPASFTVFREGDEVDHVYSISAGAVKLYKLMPDGRRQIIGFLFSGDLFGLGIDGGYCYTAETITPTHLCRFTHRKLDSLIAEIPRLERRMFTMAVKDLVSAQDQMLLLGRKTAREKVATFLLRLSRRSIQMGLPPSPVALPMSRADIADYLGLTIETVSRTFTQLKRDGIIGLPASGHCIVNDWEALRELAEGG”, the “soluble on expression in E. coli” value is “not soluble”. Under “MGQMADRLAALVVTAFSPDGQIEGSYGAAAGANIRFNGNSYRHYTERGLGHQLSRMAVLVWIAHQRGHDATVAEVTGQPVSRRQETWDARRRRFREEQAETESEGMSTGGLVYFRNTGMRDWHIVIRDGTLSKLDEPEFVKEFLSGYAALSLDYRHKMTKLRTKHYGPDIWMKK” stands “not soluble”; under “MPDVPETVGTPDGSTEFEHRPTTDQSFENALAKARNGTRLTVDDAVELFTTGTDRDGIDHDRKEQVLEAADRRRAEVVGDEVTFVANLNNNVTTACNTGCLFCNFKDRSEQFRSDYQEDHGGFTKTPSESRQIVQDALDRGIYEVCSVSGLHPALALDTEHREILETSDRGDLNYRSPDEYETDPATYCEQLDAMNVGDIHLHSMTPEEAYHARRGTDWSYEEVFSRLQDAGLDSVPGTAAEILVDEVRDVICPGKIRTDEWLEAMAAAASVGLDMTSTMMYGHVENEYHRALHLQRIRDLQDRTGAITEFVPLSFVHEETPLYERGMVDGGATVDEDELMIAVSRLFLDNVDHIQASWVKYGDTQGLKMLTCGADDFMGTILSEEITKRAGGDYGEFRSFQEYADMITAIGRTPVERSTDYEQRRVIDPDADVLGPQLGPRADGTPLLD”, “not soluble”. As to “MSQISIILPTYNVEKYIARALESCINQTFKDIEIIVVDDCGNDKSIDIAKEYASKDDRIKIIHNEENLKLLRARYEGAKVATSPYIMFLDSDDYLELNACEECIKILDMGGGGKIDLLCFEAFITNAKKSIKKLNIKQGKYNNKEFTMQILKTKNPFWTMWAKIIKKDIYLKAFNMLNLKKEIKINMAEDALLYYPLTILSNEIFYLTQPLYTQHVNSNSITNNINSLEANIQEHKIVLNVLKSIKNKKTPLYFLIIYLLKIQLLKYEQNFNKRNINLIYYKINILYQKYQFKWKKFLYNLIP”, the “soluble on expression in E. coli” value is given as “not soluble”. Under “MAHHHHHHMAATNSPTEEEVVMRYQQLRQECLAMDSRISELENELHEHQLVADTLKPLNGDRRCHRLVGGALIERTVADILPELVENIKGIEEALAQLNKMLTEKQAAMDEYARKHGVTVAQRQGQTPAGGGGANNDEGEKKPMGADSRGVLV” stands “soluble”; under “MTDLTGILYIVATPIGNLQDITQRALETFAQVDLIAAEDTRHSGLLLSHYGIKKPFFALHDHNEQEKAHILVEKLKQGSNIALISDAGTPLISDPGFHLVRQCREAGIRVVPLPGACAAITALCASGIASDRFCFEGFLPAKSKARKDKLENIAEEDRTLIFYESTHRILDTLEDMQAVLGEERYIVLAREMTKTWETITGNTIKNLREWLLEDPNRTKGEMVLIVEGKPKSDNNDEISPQAVKALELIAEELPLKKAAAIVAELYGYKKNALYQFGLAHLEKLEHHHHHH”, “soluble”. In the case of “MNHFELYKLKKAGLTNKNILNILDYQKHQEKSLSLRDMAVVSGCKHPSHFIEAYKQLDIQNLKMEFKQFPSISILDKHYPMALKEIYNPPVLLFFQGNLDLLEKPKLAIVGSRRSSDTGVKSVRKILKELGNRFVIVSGLARGIDTSAHLACLKNGGQTIAIIGTGLDRFYPKENRELQTFLGKNHLVLTEYGPGEEALSYHFPERNRIIAGLSRGILVVEAKNRSGSLITCQIGIEEGRDIFAVPGNILDGKSEGCLQLIKEGATCVTSGMDILSEY” it was “not soluble”.

“MGSDKIHHHHHHMIDWLYSYPPLYPGILLKRYKRFFADVQLASGEVVTAHCPNTGPMTGVSTLGSVVQLSKSANPKRKLAYTLELIQVHDNEPTWVGVNTALPNQIVKLALAKYLFPELGSYNHIKSEVVYGVDKKSRVDFFLTGSDTERPIYLEVKNTTWAKGTLALFPDTETTRGQKHLRELMTLLPQTRSVMLYFINRGDCTEFAPGDSTDPIYGKLLREAIALGLEVLPCRFDVTPEGIRYLGLAKLVI”: the “soluble on expression in E. coli” value is recorded as “not soluble”. In the case of “MKKEHLKFVIDSRCFRGSCVTSMSDGIHCDYYGSTLEELKKQENNPFLVAVTRNAIHKRSRIHDKSLCRPFREITEENYYNCMNELPPVRLKHHSFFFGEPYHGSLYMFCFTIGKRFFRGLRPVMTPQAELERQMNEHYHNITFKGKVTKGKAERITSKDKQEIITIPYSFTDKENRERFICNMVTGGNDGGDTCKARKDMTNILLSLRKHHFLYFSGYGRHDDMETLLDEVEEKRYTIITSGCLFQFPPCRDSVSFTGSVKETGENFFYRIYDRELFLHIMHRLRAVKREKTPAEAKAVLPKCKCYE” it was “not soluble”; in that of “MHTPVTIIGAGLGGLTLARVLHVHAIPVTVYEADSSPSARAQGGLLDIHDYNGQLAVEAAGLTDEFRAIVLEGRQALRVLDPDGTVRLDRADDGTGGRPEVQRGDLRQILLDSLPAGTVRWGHKVSRARPLGDGRHEVTFADGGTVVTRLLVGADGAWSRVRPLLSSATPEYVGKSVVETYLFDAGTRHPVAAKTVGGGMLIAPAPGKEIFAHREKDDTLHAYVGLSRPLDWFAGIDFTDGAAATARIAREFDGWATELTALITDTDVAPALRALHALPAGHRWERVPGVTLLGDAAHLAAPNGEGANLAMLDGAELGTALAAHPGDVEAALAEYERAMFPRSAEAAGDDMIGMDSPDNTAQGLIDLITENGGLEHHHHHH”, “soluble”. Consider “MGSDKIHHHHHHMSSMSARNPFRPTFGVSPTVLAGRDSLLQSFKLGLAEGPGSPFRALLISGSRGMGKTVLLNEFEDAAASQGWITLRAYPDNSMVDGLVNSAIPEALQNLDGPQSKRMLSGVAIPGIATVTAIADPTKKDPTPTLISRLRELATRLQKHGSGILITLDELQSANVDLLHVLATAVQDLLRDDFDIALVAAGLPEGIDRLLQHEGTTFIRRAERILLNPVNHEDSVEMFLYTAAYGYRHMTSEAAELAAQISKGYPYSMQLTGSLAWARSTLDNSDTIQAEQVDAVRDEVVRRMGMQVHEPSLHQVPDGELTILYAIAQLSKNGEMVSTGDIAHLMGVKPNALSMQRKQLLSRGLVEVPKYGFLNFTLPYMREHLLNSPHHRPIT”, for which the “soluble on expression in E. coli” value is “not soluble”. Under “MGCFFSKRRKADKESRPENEEERPKQYSWDQREKVDPKDYMFSGLKDETVGRLPGTVAGQQFLIQDCENCNIYIFDHSATVTIDDCTNCIIFLGPVKGSVFFRNCRDCKCTLACQQFRVRDCRKLEVFLCCATQPIIESSSNIKFGCFQWYYPELAFQFKDAGLSIFDNTWSNIHDFTPVSGELNWSLLPEDAVVQDYVPIPTTEELKAVRVSTEANRSIVPISRGQRQKSSDESCLVVLFAGDYTIANARKLIDEMVGKGFFLVQTKEVSMKAEDAQRVFREKAPDFLPLLNKGPVIALEFNGDGAVEVCQLIVNEIFNGTKMFVSESKETASGDVDSFYNFADIQMGILEHHHHHH” stands “soluble”; under “MSLSLLSKLDVSPLQFQDPSKDGSKIINLNLDGSGDPLRLSELGESDYSNSIKVRDNEYVTYHLSNDYSVLTIYSMNDALQNKTINIKLPVQSTNKQHTSIVFVKDEAFNVEFILRNSIYLKISIPIDFIINNSSELNEDWFYVLQPYDFSVRKPHMLHRVSDNFSVVFLEDGGLVGLTSHGETDLEPILFNDNSYLQSITRLFSKSKHSKNSKVVSCSNYQSNFLIVLTEDCILKIWDLKKLILINEYNLFDVNNSDFIAGGLFDSCGNYLHLFNNLLTIYLPFTNGLFQVGTLDVDSSDKLTFQSKIVIPSNLPASSLWSLTDMRMINPLDLNLPETFLNIIVLWKSGTMSKLQILNILNESVDSYEWIDASNKDLEETRIESDIESSDFSKTLFKLTSRYPKAIVDRAIKVLEENGISIPLQEALDEEYLANLETLLRDIKGGCDEASSLTLYNDEIIVINCLQKYNYSIYKINCSLEKTYFDINDDSEGHHHHHH”, “soluble”. As for “MRLLVAFAVIYFISISPVCAENTASTINIPTPAIESPLASKSLLLDISLIGQEKLVTVGQHGHILLSNDGKKWQQANVPVQVTLTNVFFLNEQLGWAVGHDATILHSQDGGLNWQVQQYLPLLEKPLFDIYFKNPQQGIAVGAYGQVFRTNDGGSTWQNEFHQEILLADDVEYLNELKAEDEAAYLDEITFILPHFNRLVQDGGSLFLLGETGLLAKSDDFGLTWQQFDNFYQGSFFSLARTKTGNVLVAGLRGHVFRSLNHGSQWDEVPTNTTALLNDIVFANDERIFILGNNGMLLISTDDGESFSKIPQQDGKTLIAGVWFKGQLIAVSDVGIKVVDLSQELEHHHHHH”, the “soluble on expression in E. coli” value is on record as “not soluble”. Under “GPNSGTLALLLDEGSKQLPQAIIIGVKKGGTRALLEFLRVHPDVRAVGAEPHFFDRSYDKGLAWYRDLMPRTLDGQITMEKTPSYFVTREAPARISAMSKDTKLIVVVRDPVTRAISDYTQTLSKRPDIPTFESLTFKNRTAGLIDTSWSAIQIGIYAKHLEHWLRHFPIRQMLFVSGERLISDPAGELGRVQDFLGLKRIITDKHFYFNKTKGFPCLKKAEGSSRPHCLGKTKGRTHPEIDREVVRRLREFYRPFNLKFYQMTGHDFGWDG” stands “soluble”. Turning to “MAIFRDYSINPTEHDRTIGDRRRHRELVEKAIKDNLADIVSEESIIGESKSKKIKIPIRGLKEYKFLYGNNSSSVGSGTGNEKKGDIIGKEQMGNGSKGKGKGAGNSEGEDIYETEVTIEEVFSYLLEDLNLPNLDKKKYSEIVTDSSKKKAGYQKYGIRPRLAKKRTVIEKIKREQSRKRAIKELGKDDKVERLPFSEEDLRYHRIKEKPKKECNAAIMCVMDCSGSMDSTKKYLARSFFFILSKFIRMKYVNVEIAFISHSTVGREVTETEFFHKVESGGTYISSGLNTAMDIIKERFNPATWNIYGFYVSDGDNFTEDDERAIKSMRKFCEIANMIGYAEILPYSYSGTMKYKFDNYVKDKNFISSTIRNKEDLWPVLKKMLIKELKELEHHHHHH”, the “soluble on expression in E. coli” value was “soluble”. Under “GPLGSEVMGPVEAAPEYRVIVDANNLTVEIENELNIIHKFIRDKYSKRFPELESLVPNALDYIRTVKELGNSLDKCKNNENLQQILTNATIMVVSVTASTTQGQQLSEEELERLEEACDMALELNASKHRIYEYVESRMSFIAPNLSIIIGASTAAKIMGVAGGLTNLSKMPACNIMLLGAQRKTLSGFSSTSVLPHTGYIYHSDIVQSLPPDLRRKAARLVAAKCTLAARVDSFHESTEGKVGYELKDEIERKFDKWQE” stands “soluble”; under “MYVLIGGAGLVGLTLAQKLVELGHTVAIIDVDHTACRYAREQVGAMAFEGSAVSTEVLLEAGIRKADALAAVLRNDALNLAMVMLAKHYGVSHILSRMRHADFAQPLRLAGANHVISTVELSVSTMVNAIEYPQVESMMHFEQGQIEVLKISIPNSCYVANRSLAEIAQDSRFPSGSLIIGYQPHPHEDLVIPNGSTVLESGSTILIATKPGSLHQVIDFIEGCKLEHHHHHH”, “not soluble”.
